Values of other authors as cited in publication PMC5266585.

Experiments:
[1] = biological target: LRP1 principal ligand binding region fragments (Homo sapiens) (UniProt Q07954)
[2] = biological target: LRP1 CR4-CR5-CR6 (Homo sapiens) (UniProt Q07954)

Kd [1]: < 3 nM
Kd [2]: 1.5 nM
Substance: PAI-1 (from UniProt P05121)
